Measurements from the DeepSol protein solubility set.

experiment: soluble on expression in E. coli; label from the status in PepcDB or PDB records

Soluble on expression in E. coli, not soluble:
MGSDKIHHHHHHMLSVPPDKSITHRALILSALAETESTLYNLLRCLDTERTHDILEKLGTRFEGDWEKMKVFPKPFAEPIEPLFCGNSGTTTRLMSGVLASYEMFTVLYGDPSLSRRPMRRVIEPLEMMGARFMARQNNYLPMAIKGNHLSGISYKTPVASAQVKSAVLLAGLRASGRTIVIEPAKSRDHTERMLKNLGVPVEVEGTRVVLEPATFRGFTMKVPGDISSAAFFVVLGAIHPNARITVTDVGLNPTRTGLLEVMKLMGANLEWEITEENLEPIGTVRVETSPNLKGVVVPEHLVPLMIDELPLVALLGVFAEGETVVRNAEELRKKESDRIRVLVENFKRLGVEIEEFKDGFKIVGKQSIKGGSVDPEGDHRMAMLFSIAGLVSEEGVDVKDHECVAVSFPNFYELLERVVIS
TVVEEDTGGNTDLEAVRRTLLAQFEQYAKLNKKIPAEIIGSINGIAENSRLTDTVAAHLQLKLAQRQQILEIPEIGKRMEFLLAQLESELDIMQAEKRIRGRVKRQMEKSQREYYLNEQIKAIHKELGEEDENGELDALEADIKKAGMTKEAEEKCLSELKKLKMMPPMSAESTVVRNYIDTLLELPWKKKSRVSKDIAKAGLVLDADHYGLEKVKERILEYLAVQKRMDKLKGPILCLVGPPGVGKTSLGESIAKATGRKYVRMALGGVRDESEIRGHRRTYIGSMPGKILQNMAKAGVKNPLFLLDEIDKLGNDFRGDPASALLEVLDPEQNNKFADHYAEVDYDLSDVMFIATSNSLNIPTPLLDRMEIIRL
MGSDKIHHHHHHMTKPFYWNELNTYDFASLSPDSTIAVLPIASTEQHGPHLPIATDVAIANGMLAELKRQRPDDLNFLVLPTQEIGKANEHVYGPGTLSLSADLLIAAWTAIGAKVAEAGLRKLVIVNSHGGNVDIMSIVGRELRVRHKMAVVSTQWSRFGNPEGMISEHENRYGIHGGEVETSLMLHFRPELVRMDKAENFVSKAEWMKERSDFLQPLPPHSLAWIAHDLNPAGVVGDASKGTAEKGEAICRHQVSGFIQLLRDVRDYPLSALYSPE
MPDAVYVFTPKGHIRALPRGATALDFAYAVHSDLGNQCVAVKINNELLPLRTELKSGDIVEVVTAPYSKLEHHHHHH
MRPSAPNIWIWKVSNLASDPRETVSGEWYAARSNLSSAARLRHGGTLLLVLDAKDNHVITKAEIKAVEISHRVGTIPREIHFPDGSLFETSDNEGVDRLLGLYLPKRAGFVHRLEQFRPRLIGITAAAVLLAYGTYKLALPAVVELAVAMTPPIVPKIMSASTMQALDQTVFSASELPLEEQNAIRVQFSRIAAHAEGSPEDYKLNFRKGGYIGPNAFALPDGTLVLTDELVELAGGDRQMIIGVLAHEIGHVEYEHSLRQLYRAAGVAGLVMLIAGDVGSAMEDILTQGGGLLALSHSRDAERQADQRSVELMRKADLDPTAIERFFALLEEKLGDKGGTSIISTHPGTPQRRKAIIDYNASLDNKPAGNLEHHHHHH
LVTKEVEYEDGDTVCKGFIAYHSSASKPLPCVMVAHDWGGRGEGACNKARQLAGMGYIGFAIDMYGNAKLGKDKAEKRALMTPFRENRGKLITRINAAFNKVVQLPEVDSEKVAAIGYCFGGLCVLDLIRSGAPLKGVVSFHGVLLPLEGESNKSLNAKVLILHGYDDPLVPIEQVNQFAIEMTERKVDWQVHVYGQTAHSFTDPGANDDEMGLHYNKLADQRSWQSTQLFLQELF
MNKVAQYYRELVASLNERLRNGERDIDALVEQARERVIKTGELTRTEIDELTRAVRRDLEEFAMSYEESLKEESDSVFMRVIKESLWQELADITDKTQLEWREIFQDLNHHGVYHSGEVVGLGNLVCEKCHFHLPIYTPEVLTLCPKCGYDQFQRRPFEP
MGSDKIHHHHHHMSKRKLTTKFEEEPLNFGTGMWNVGLTPNVCRCTLLLPTSCMTCLVGTGRTASGRWPATYVPFDESAISELKRYASFIAISNHSDLLSDPSGSRRFICINITGRIRNGVAINYLQPYAQAVQELREGECFYFSPEEEAVLMENNQEFELQTPVGHLFQQYFRSADEGEKCETLLAVDILGRIQKKSGFKLSATKIVHLGRILRKLGVPCKKMKNGNFYCVVEL
MGSDKIHHHHHHMVSLFKIIQVGDHGEVPGAEVFWMKDFDKWYRLSFYSFLIKTENDQYVLINTGLPDDLSLRNKFLKEWAKSDRCKFQHVEKIENALAKLNITTDDISHIIITPVQDYTIGRIHMFRKAKLYFSKKGWYEDVVTPSPSPFLNRDIYLPRLTREYLFDEAWNRIVLVENQEVIKGIEVKWTGCHHRSSMLVKFNFDKKRWCISDSAFVMNNFEQNIPIGIAEDIYECLNAYDYMRRECDVVIPSYDPENVNRFKEYILK
MDISVVVPTLNGREELTGCLDALTEQVPDAEVIVVNGPSADGTTGMVRDRDDVSLLVEIADRSVTVARNAGIDRATGDVIALVHQSLSVESGWADAVKDGLSGAAQAITGPTHQQLWAGMTTETEETRTIAGRDVTYFNPGNVAFDAEVVEALDGFDEYLNVGSARDFAHRMAAGEYGVDWSTEMCVSREFEADGGIAETDWNWKYRSLAYRLVKNYNVRPTVVRRILSHAVGDAKDALFDVVRGETTPSQWLGTGQDVFGGVGSGIVDGVRARVTDRTARRNPNGRSARTNRAVTVYDWRLEHHHHHH
VKNILLLDSEGKRVAVKYYSDDWPTNAAKLSFEKYVFSKTSKTNARTEAEITLLDSNIIVYKFAQDLHFFVTGGENENELILASVLQGFFDAVALLLRSNVEKMEALENLDLIFLCLDEMVDQGVVL

Soluble on expression in E. coli, soluble:
MKTVILIGALGKMGQAALTGLSKHKVITAGRSGNVDHLVDITNENSIRALYEKVGHFDAVVNTVGFCEYATFAEMTEAQWMTTVMSKMMGQINLVRIGQEYIADKGSFTLISGILNVKPIPCAIADATTSGAIDTFVKCVAYEMQRGTRINVVNPTVLTEAWDVYGDMMPGFEPVPSTLVGKAFERSVDGFINGEVLFVDALEHHHHHH
MAGDPNSMFSPQASAAYDDLHEGYATYTGSGYSGGAFLLDPIPSDMEITAINPADLNYGGVKAALAGSYLEVEGPKGKTTVYVTDLYPEGARGALDLSPNAFRKIGNMKDGKINIKWRVVKAPITGNFTYRIKEGSSRWWAAIQVRNHKYPVMKMEYEKDGKWINMEKMDYNHFVSTNLGTGSLKVRMTDIRGKVVKDTIPKLPESGTSKAYTVPGHVQFPELEHHHHHH
MAAGIVASRRLRDLLTRRLTGSNYPGLSISLRLTGSSAQEEASGVALGEAPDHSYESLRVTSAQKHVLHVQLNRPNKRNAMNKVFWREMVECFNKISRDADCRAVVISGAGKMFTAGIDLMDMASDILQPKGDDVARISWYLRDIITRYQETFNVIERCPKPVIAAVHGGCIGGGVDLVTACDIRYCAQDAFFQVKEVDVGLAADVGTLQRLPKVIGNQSLVNELAFTARKMMADEALGSGLVSRVFPDKEVMLDAALALAAEISSKSPVAVQSTKVNLLYSRDHSVAESLNYVASWNMSMLQTQDLVKSVQATTENKELKTVTFSKL
GMENIEYVFEDVVRIYDTDAQGIAHYAAYYRFFTNTIEKFIKEKVGIPYPIVNENLWFVIAESHAIYHRPVKLGDKLTVLLNPKILSNKTIKFEFKVLKDGELTTEGYVIQIAINPKIWKSTEMPKEIMDKLSIK
MSLAMEHVDVLIVGAGLSGIGAAYHLQKHCPGKTYAILEGREAIGGTWDLFRYPGIRSDSDMYTLGYSFKPWKAAKAIADGPSILDYVRETAREHDIDRHIRFQHLVKRASWSSETATWTVEAEHDGKPVTLTCRFLHMCSGYYRYSAGYTPDFAGTERFKGRIVHPQHWPEDLDYSGKKVVVIGSGATAVTLVPEMAKTAAHVTMLQRSPTYVVSRPAEDGIANWLRSKLPAMTAYGITRWKNVLFQLFFFNLARKKPEKVKERLLGMVRDHLGPGYDVETHFTPRYNPWDQRLCLVPDADLFDAIKSGAASVVTDHIETFTETGIQLKSGKTLDADVIVTATGLQLQLLSGMEVVVDGKVADLSQSMSYKGMMFSDVPNLASVFGYTNASWTLKADLTSEYVCRLLNHMDRTGADYCVPRLDGEVEAAPWLDFSSGYITRSIGHFPKQGTRKPWKVHQNYALDLMTLRMGKVEDGVMQFGRKTGATAKAKPEKALEPAEGHHHHHH
MRIAIIGSGCSGLTAIKNLLDAGLKEIICFEKSDQIGGNWVYTAAPSHSSVSEATHIISSKALSQFSDFPMPDDYPDYPSHQQILAYFQAYTRHFHLDHYIRFNTAVLRAEKIEKERWCLHLDDGTQAEFDYLLVANGHHSVPRHPDWKECFTGKYLHAHEYKTNQGLEGKRILVVGAGNSGCDCAVEASRVAARVDISLRSPQYIIPKFIMGRPTDTFAATFHWLPQSVQDGLQRISLRLQIGRYHDYALPEPDFSPTRAHPTINSALFDKIRHGKVHPRPGIQKVSGQTVYFADNATAQYDVLIAATGYKISFPFFDRDFLDWEEAAHIPLFLRIFHPDHPSLFFVGLIQPQGCIWPLAEIQARLIGQLLTNKIQLPLNWRKLALSEGRNRAQQFIARPRHSIEVHYYPYLKQLQRMIQGQIKLEHHHHHH
MRTMIYKILTGCYIVAALVLVAACNDGLDIQTKYPFTVETMPVPKELKVNETAEIRCELKREGRWEDTRYTIRWFLFDGEGTLKLDDGTVLLPNDRYPLEKETFRLYYTPLSDEQSGFTVWVEDSDGQAVELEFDFNADNDKEDGYGTELEHHHHHH
MEIDEGKYECEACGYIYEPEKGDKFAGIPPGTPFVDLSDSFMCPACRSPKNQFKSIKKVIAGFAENQKYG
MAQEIELKFIVNHSAVEALRDHLNTLGGEHHDPVQLLNIYYETPDNWLRGHDMGLRIRGENGRYEMTMKVAGRVTGGLHQRPEYNVALSEPTLDLAQLPTEVWPNGELPADLASRVQPLFSTDFYREKWLVAVDGSQIEIALDQGEVKAGEFAEPICELELELLSGDTRAVLKLANQLVSQTGLRQGSLSKAARGYHLAQGNPAREIKPTTILHVAAKADVEQGLEAALELALAQWQYHEELWVRGNDAAKEQVLAAISLVRHTLMLFGGIVPRKASTHLRDLLTQCEATIASAVSAVTAVYSTETAMAKLALTEWLVSKAWQPFLDAKAQGKISDSFKRFADIHLSRHAAELKSVFCQPLGDRYRDQLPRLTRDIDSILLLAGYYDPVVAQAWLENWQGLHHAIATGQRIEIEHFRNEANNQEPFWLHSGKR
SSEAYFPVESGALGPEENFLSLDDILMSQEKLPVRVETPMPRLGAFFLERGAGSEPDHPLPQGTKLELPLWLAKGLFDHKRRILSVELPKMYQEGWRTVFSADANVVDLHKMGPHFYGFGSQLLHFDSPENADISQSLLKTFIGRFRRIMDSSQNSYNEDTSALVARLDETERGLFQIGQRSLNDFQSWEKGQASQITASSLVQNYKKRKFTNMED
MRTSFFAAAALLAVSAFAQAHEYNAGQLHIEHPWALALPPTSPNGAAYFVVQNHGKENDTLLGADTPRAASAEVHEHVHKNGMMSMQKVDSVDVAPGKDLRFAPGGYHLMLMGLKQPLVAGERFPLTLHFRKAGDVPVEIVVESKAPAEQGGHEQHGH
GPGSMIEADVIRLNMEVEAAAARNADLSREVARLREELANSGLHNMDRTLVITEGTQTDSGMLREVALDLDDILFEVSELLFRLYPASSLDLSVRRDAQSSQLNDLSQRCLREVRSLKAAWEMKLDGYNQFISNIQRSQVDYHRSLDSKECQLRRKQQECDVLVGENARLSTLCSELESQLKTTQEAATRAEEQVGRLLQQTADLEAERRRLLDREAAMANTLVALRAECAFNPWSSLVGVKEAATTIESNGQLPSVREQAVAVTKAHIKPPGAVSASDVAMAFQGLDLDGQLPHMCVEPESVVDYYCKVKHSSPTRSLM
HHHHHHMDLVEKVKELCLELEEENLAKAIERFITLTHGIEKTRGEAFAKASIYGFLEGILTTLKMKYSNEKIETLLNEVKTAREETEALLRKPRPPLLVDNDL
